Measurements taken from patent US20210340211A1 (UNIVERSITY OF COPENHAGEN, published 2021).
One block for each binder: values may come before it. Ends that are not written are not given here.

How the values were obtained:
human GIP receptor [1] = biological target: T1, human GIP receptor (human, UniProt P48546 22-466); experiment: homologous competition binding vs 125I-GIP(3-30)NH2, COS-7 cells transfected with human GIP receptor
T1 construct: whole, on cells; also called hGIPR
T1 sequence (looked up): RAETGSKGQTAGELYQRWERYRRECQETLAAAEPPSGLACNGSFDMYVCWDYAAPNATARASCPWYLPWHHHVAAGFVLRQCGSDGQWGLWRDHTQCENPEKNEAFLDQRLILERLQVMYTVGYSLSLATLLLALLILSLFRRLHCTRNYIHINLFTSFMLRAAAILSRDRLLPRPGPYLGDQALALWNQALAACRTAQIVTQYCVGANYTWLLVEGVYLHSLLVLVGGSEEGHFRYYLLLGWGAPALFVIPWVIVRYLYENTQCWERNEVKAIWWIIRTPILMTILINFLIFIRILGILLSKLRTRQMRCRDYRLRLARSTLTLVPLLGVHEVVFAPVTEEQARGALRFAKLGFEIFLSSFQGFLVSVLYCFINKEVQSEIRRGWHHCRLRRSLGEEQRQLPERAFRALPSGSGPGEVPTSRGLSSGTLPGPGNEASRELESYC
Description: (§1) Nonspecific binding was determined as the binding of radioligand to untransfected cells. All determinations were made in duplicates, and all experiments repeated at least three times. The samples were analyzed for radioactivity using a Wallac Wizard 1470 Gamma Counter (GMI Inc., Minnesota, USA). The number “n” refers to individual experiments with separate transfections although from same cell line.

human GIP receptor [2] = biological target: T1, human GIP receptor; experiment: competition binding vs 125I-GIP(1-42), COS-7 cells transfected with human GIP receptor
Description: as §1
(§2) Statistical analyses (unpaired t-tests) of two parameters were also performed with GraphPad Prism 6.0. […] Kd is the dissociation constant determined by homologous receptor binding.

human GIP receptor [3] = biological target: T1, human GIP receptor; experiment: cell-based or functional assay
human GIP receptor [4] = biological target: T1, human GIP receptor; experiment: cell-based or functional assay; remark: listed apart in the source
human GIP receptor [5] = biological target: T1, human GIP receptor; experiment: competition binding vs 125I-GIP(1-30)NH2, COS-7 cells transfected with human GIP receptor
Description: as §1, §2

human GIP receptor [6] = biological target: T1, human GIP receptor; experiment: competition binding vs 125I-GIP(2-30)NH2, COS-7 cells transfected with human GIP receptor
Description: as §1, §2

human GIP receptor [7] = biological target: T1, human GIP receptor; experiment: competition binding vs 125I-GIP(3-30)NH2, COS-7 cells transfected with human GIP receptor
Description: as §1, §2

human GIP receptor [8] = biological target: T1, human GIP receptor; experiment: competition binding vs 125I-hGIP, COS-7 cells transfected with hGIPR
Description: COS-7 cells were seeded in clear 96-well plates the day after transfection using a number of cells/well that obtained 5-10% specific binding of the added radioactive ligand. […] After incubation, the cells were washed twice in ice-cold binding buffer and lysed using 200 mM NaOH with 1% SDS for 30 min. Nonspecific binding was determined as the binding of tracer to untransfected cells.

human GIP receptor [9] = biological target: T1, human GIP receptor; experiment: cell-based or functional assay; remark: listed apart in the source
human GIP receptor [10] = biological target: T1, human GIP receptor; experiment: homologous competition binding vs 125I-GIP(2-30)NH2, COS-7 cells transfected with human GIP receptor
Description: as §1

Ki (human GIP receptor [2]): 307 nM | fold change of GIP(1-30)NH2 affinity (human GIP receptor [2]): 345 fold | fold lower affinity compared to GIP(1-30)NH2 (human GIP receptor [2]): > 300 fold | logIC (human GIP receptor [2]): -6.51 | IC50 (inhibition of GIP(1-42) induced cAMP accumulation) (human GIP receptor [3]): 450 nM | logIC50 (inhibition of GIP(1-42) induced cAMP accumulation) (human GIP receptor [3]): -6.35 | right-shift of antagonistic potency compared to GIP(3-30)NH2 (human GIP receptor [4]): 38 fold
B5: GIP(9-30)NH2 (peptide)
peptide: DYSIAMDKIHQQDFVNWLLAQK-NH2
notes: also called human GIP(9-30)NH2; hGIP(9-30)

IC50 (human GIP receptor [8]): 7.8 nM | Ki (Schild plot, cAMP accumulation) (human GIP receptor [9]): 37 nM
Binder: EGTFISDYSIAMDKIKQQDFVNWLLAQK (Synthetic variant of hGIP(3-30)) [hGIP(3-30)H18K]

IC50 (human GIP receptor [8]): 2 nM | Ki (Schild plot, cAMP accumulation) (human GIP receptor [9]): 35 nM
Binder: EGTFISDYSIAMDKIAQQDFVNWLLAQK (Synthetic variant of hGIP(3-30)) [hGIP(3-30)H18A]

Ki (Schild plot, cAMP accumulation) (human GIP receptor [9]): 7.9 nM
Binder: EGTFISDYSIAMEKIAQQDFVNWLLAQK [hGIP(3-30)D15EH18A]

Ki (Schild plot, cAMP accumulation) (human GIP receptor [9]): 15 nM
Binder: EGTFISDYSIAMDAIAQQDFVNWLLAQK [hGIP(3-30)K16AH18A]

fold lower antagonistic potency than human GIP(3-30)NH2 (cAMP accumulation) (human GIP receptor [4]): 26 fold | fold shift in the dose-response curve of human GIP(1-42) by 1 µM antagonist (human GIP receptor [4]): 7.3 fold
Binder: EGTFISDYSIAMDKIHQQDFVNWLLAQKGKKNDWKHNITQ [human GIP(3-42)]

The remaining lines, values behind:

B1: GIP(3-30)NH2 (peptide)
peptide: EGTFISDYSIAMDKIHQQDFVNWLLAQK-NH2
notes: also called human GIP(3-30)NH2; hGIP(3-30)NH2
IC50 (human GIP receptor [1]): 3.4 nM | fold change GIP(1-30)NH2 (human GIP receptor [1]): 2 fold | log (IC50) (human GIP receptor [1]): -8.47 | Ki (human GIP receptor [2]): 2.3 nM | fold change of GIP(1-30)NH2 affinity (human GIP receptor [2]): 2.6 fold | fold decrease in affinity compared to GIP(1-30)NH2 (human GIP receptor [2]): 2.3 fold | logIC (human GIP receptor [2]): -8.63 | IC50 (inhibition of GIP(1-42) induced cAMP accumulation) (human GIP receptor [3]): 11.8 nM | logIC50 (inhibition of GIP(1-42) induced cAMP accumulation) (human GIP receptor [3]): -7.93 | fold shift in the dose-response curve of human GIP(1-42) by 1 µM antagonist (human GIP receptor [4]): 281 fold | IC50 (human GIP receptor [5]): 4.4 nM | fold change GIP(1-30)NH2 (human GIP receptor [5]): 14.5 fold | log (IC50) (human GIP receptor [5]): -8.35 | IC50 (human GIP receptor [6]): 0.76 nM | fold change GIP(1-30)NH2 (human GIP receptor [6]): 1.6 fold | log (IC50) (human GIP receptor [6]): -9.12

B2: GIP(8-30)NH2 (peptide)
peptide: SDYSIAMDKIHQQDFVNWLLAQK-NH2
notes: also called human GIP(8-30)NH2; hGIP(8-30)
Ki (human GIP receptor [2]): 79 nM | fold change of GIP(1-30)NH2 affinity (human GIP receptor [2]): 89 fold | logIC (human GIP receptor [2]): -7.1 | IC50 (inhibition of GIP(1-42) induced cAMP accumulation) (human GIP receptor [3]): 133 nM | logIC50 (inhibition of GIP(1-42) induced cAMP accumulation) (human GIP receptor [3]): -6.88

B3: GIP(4-30)NH2 (peptide)
peptide: GTFISDYSIAMDKIHQQDFVNWLLAQK-NH2
notes: also called human GIP(4-30)NH2; hGIP4-30
Ki (human GIP receptor [2]): 21.5 nM | fold change of GIP(1-30)NH2 affinity (human GIP receptor [2]): 24 fold | logIC (human GIP receptor [2]): -7.67 | IC50 (inhibition of GIP(1-42) induced cAMP accumulation) (human GIP receptor [3]): 108 nM | logIC50 (inhibition of GIP(1-42) induced cAMP accumulation) (human GIP receptor [3]): -6.97

B4: GIP(6-30)NH2 (peptide)
peptide: FISDYSIAMDKIHQQDFVNWLLAQK-NH2
notes: also called human GIP(6-30)NH2; hGIP(6-30)
IC50 (human GIP receptor [7]): 370 nM | fold change GIP(1-30)NH2 (human GIP receptor [7]): 223 fold | log (IC50) (human GIP receptor [7]): -6.43 | Ki (human GIP receptor [2]): 347 nM | fold change of GIP(1-30)NH2 affinity (human GIP receptor [2]): 391 fold | fold decrease in affinity compared to GIP(1-30)NH2 (human GIP receptor [2]): 347 fold | fold lower affinity compared to GIP(1-30)NH2 (human GIP receptor [2]): > 300 fold | logIC (human GIP receptor [2]): -6.46 | IC50 (inhibition of GIP(1-42) induced cAMP accumulation) (human GIP receptor [3]): 342 nM | logIC50 (inhibition of GIP(1-42) induced cAMP accumulation) (human GIP receptor [3]): -6.47 | IC50 (human GIP receptor [5]): 1060 nM | fold change GIP(1-30)NH2 (human GIP receptor [5]): 3500 fold | log (IC50) (human GIP receptor [5]): -5.97 | IC50 (human GIP receptor [6]): 340 nM | fold change GIP(1-30)NH2 (human GIP receptor [6]): 707 fold | log (IC50) (human GIP receptor [6]): -6.47

B6: GIP(5-30)NH2 (peptide)
peptide: TFISDYSIAMDKIHQQDFVNWLLAQK-NH2
notes: also called human GIP(5-30)NH2; hGIP5-30
Ki (human GIP receptor [2]): 5.9 nM | fold change of GIP(1-30)NH2 affinity (human GIP receptor [2]): 6.6 fold | logIC (human GIP receptor [2]): -8.23 | IC50 (inhibition of GIP(1-42) induced cAMP accumulation) (human GIP receptor [3]): 11.9 nM | logIC50 (inhibition of GIP(1-42) induced cAMP accumulation) (human GIP receptor [3]): -7.92

Binder: EGTFISDYSIAMDKIHQQDFVNWLLAQK (also called human GIP3-30) [hGIP(3-30)]
IC50 (human GIP receptor [8]): 16 nM | Ki (Schild plot, cAMP accumulation) (human GIP receptor [9]): 15 nM

B7: GIP(2-30)NH2 (peptide)
peptide: AEGTFISDYSIAMDKIHQQDFVNWLLAQK-NH2
notes: also called human GIP(2-30)NH2; hGIP(2-30)
IC50 (human GIP receptor [7]): 7.7 nM | fold change GIP(1-30)NH2 (human GIP receptor [7]): 4.6 fold | log (IC50) (human GIP receptor [7]): -8.11 | IC50 (human GIP receptor [10]): 2.7 nM | fold change GIP(1-30)NH2 (human GIP receptor [10]): 10.5 fold | log (IC50) (human GIP receptor [10]): -8.57 | Ki (human GIP receptor [2]): 14.3 nM | fold change of GIP(1-30)NH2 affinity (human GIP receptor [2]): 16 fold | logIC (human GIP receptor [2]): -7.85 | IC50 (inhibition of GIP(1-42) induced cAMP accumulation) (human GIP receptor [3]): 21.7 nM | logIC50 (inhibition of GIP(1-42) induced cAMP accumulation) (human GIP receptor [3]): -7.66 | fold lower potency than GIP(1-30)NH2 (cAMP accumulation) (human GIP receptor [4]): > 3000 fold | log EC50 (cAMP accumulation) (human GIP receptor [4]): -8.43 | potency, EC50 (cAMP accumulation) (human GIP receptor [4]): 3.7 nM | IC50 (human GIP receptor [5]): 26 nM | fold change GIP(1-30)NH2 (human GIP receptor [5]): 84.3 fold | log (IC50) (human GIP receptor [5]): -7.59

B8: GIP(7-30)NH2 (peptide)
peptide: ISDYSIAMDKIHQQDFVNWLLAQK-NH2
notes: also called human GIP(7-30)NH2; hGIP(7-30)
logIC (human GIP receptor [2]): -7.58
